The results in this text go back to PMC12090727.

This assay deals with HA-hFc probe: H1N1 A/California/04/2009 HA ectodomain fused to human IgG1 Fc. Briefly: flow cytometry on cells. Conditions: parent: est. 1.0; read off a plot. For orientation: In flow cytometry, cells or beads pass a laser one at a time.
With “Flag-tagged fTfR-5J8 receptor, WT (Flag+) (from UniProt Q9MYZ3) D100bL”, the ratio to parent worked out at 0.28.
The figure for “Flag-tagged fTfR-5J8 receptor, WT (Flag+) (from UniProt Q9MYZ3) I93A” is 0.98.
For the substance “Flag-tagged fTfR-5J8 receptor, WT (Flag+) (from UniProt Q9MYZ3) I93D”, the ratio to parent came to 0.97.
With “Flag-tagged fTfR-5J8 receptor, WT (Flag+) (from UniProt Q9MYZ3) N32A” the figure was 0.94; with “Flag-tagged fTfR-5J8 receptor, WT (Flag+) (from UniProt Q9MYZ3) R97A; P100aA; I93A”, 0.42.
As to “Flag-tagged fTfR-5J8 receptor, WT (Flag+) (from UniProt Q9MYZ3) R97H”, the ratio to parent was 0.84.
